Assay results published in patent US20260234242A1 (HAINAN SIMCERE ZAIMING PHARMACEUTICAL, published 2026).
Where a chain is given by its changes, count along the chain named. Like-named read-outs stand apart in the source and are kept apart here. Blank lines part the entries; values can stand above or below the binder they belong to.

Tests used:
[1] = biological target: T1, human CDH6 on tumor cells (OVCAR3 cells, PA-1 cells) (human, UniProt P55285 54-790); test: FACS, OVCAR3 cells
T1 sequence: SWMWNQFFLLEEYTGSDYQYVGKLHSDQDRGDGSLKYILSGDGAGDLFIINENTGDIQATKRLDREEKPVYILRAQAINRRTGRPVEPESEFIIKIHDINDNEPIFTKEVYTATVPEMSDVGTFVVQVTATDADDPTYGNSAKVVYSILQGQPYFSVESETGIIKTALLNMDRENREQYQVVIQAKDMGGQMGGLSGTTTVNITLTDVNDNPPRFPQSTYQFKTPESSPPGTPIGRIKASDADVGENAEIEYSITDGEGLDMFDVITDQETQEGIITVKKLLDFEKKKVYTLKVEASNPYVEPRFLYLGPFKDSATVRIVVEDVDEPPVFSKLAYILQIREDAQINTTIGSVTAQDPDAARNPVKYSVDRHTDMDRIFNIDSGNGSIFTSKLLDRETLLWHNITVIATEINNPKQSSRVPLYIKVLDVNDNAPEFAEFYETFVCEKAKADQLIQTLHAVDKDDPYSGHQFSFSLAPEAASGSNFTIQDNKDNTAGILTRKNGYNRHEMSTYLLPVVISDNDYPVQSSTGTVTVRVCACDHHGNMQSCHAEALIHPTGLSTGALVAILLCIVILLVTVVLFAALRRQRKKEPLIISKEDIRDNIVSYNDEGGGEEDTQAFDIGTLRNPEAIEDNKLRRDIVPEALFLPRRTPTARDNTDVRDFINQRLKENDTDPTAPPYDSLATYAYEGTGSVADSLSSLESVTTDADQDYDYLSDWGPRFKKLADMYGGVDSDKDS
Protocol: (§1) OVCAR3 cells with high expression of CDH6 and PA-1 cells with moderate expression of CDH6 were used to detect the binding activity of the antibodies to the cells. […] The cells were washed once with PBS, counted, resuspended to 2×10⁶ cells/mL in an FACS buffer (PBS+2% FBS), and then added to a 96-well plate at 50 μL/well. The chimeric antibodies were diluted with FACS buffer (PBS+2% FBS) and added to the 96-well plate at 50 μL/well, and the plate was incubated at 4° C. for 1 h. […] The dilution was added to the 96-well plate at 50 μL/well, and the plate was incubated at 4° C. for 1 h. After the plates were centrifuged and washed 2 times with PBS, the cells were resuspended in an FACS buffer. The mean fluorescence intensity (MFI) was measured using FACS Canton II (BD). Analysis was performed by the GraphPad Prism software, data were fitted, and EC50 values were calculated. The chimeric antibodies tested had strong binding to both OVCAR3 cells and PA-1 cells.
(§2) According to the above sequences, heavy chain (HC) and light chain (LC) plasmids were constructed (the nucleic acid sequences encoding the VH and VL of the antibodies were recombined into an expression vector carrying a signal peptide (SEQ ID NO: 132, […]) and a heavy chain constant region/light chain constant region sequence to obtain recombinant plasmids expressing VH—CH1-Fc/VL-CL). According to the expression and purification methods in Example 2, the hCDH6-6 humanized antibodies were obtained, and the binding activity of the humanized antibodies was detected by ELISA and FACS (see 2.2 and 2.3 for the method).

[2] = biological target: T2, his-tagged human CDH6 extracellular region protein (hCDH6 ECD-his) (human, UniProt P55285 19-615); test: ELISA, coated antigen
T2 construct: also called Human CDH6-his; hCDH6-his; not shown: his tag
T2 sequence: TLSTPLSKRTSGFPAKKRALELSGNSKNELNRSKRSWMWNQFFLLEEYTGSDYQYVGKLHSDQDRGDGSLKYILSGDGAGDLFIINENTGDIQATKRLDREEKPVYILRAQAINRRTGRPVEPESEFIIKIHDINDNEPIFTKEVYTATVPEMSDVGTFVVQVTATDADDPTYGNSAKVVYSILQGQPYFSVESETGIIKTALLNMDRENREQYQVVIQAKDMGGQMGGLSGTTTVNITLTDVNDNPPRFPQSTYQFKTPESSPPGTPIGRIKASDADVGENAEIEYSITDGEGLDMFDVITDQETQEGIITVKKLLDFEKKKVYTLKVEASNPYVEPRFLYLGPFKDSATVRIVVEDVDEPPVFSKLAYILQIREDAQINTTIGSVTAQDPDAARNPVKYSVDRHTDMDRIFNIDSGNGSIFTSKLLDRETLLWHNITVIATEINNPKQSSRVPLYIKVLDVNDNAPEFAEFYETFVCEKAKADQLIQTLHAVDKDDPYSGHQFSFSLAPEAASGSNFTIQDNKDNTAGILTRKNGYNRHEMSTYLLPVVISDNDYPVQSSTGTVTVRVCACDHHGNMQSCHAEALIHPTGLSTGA
Protocol: (§3) Human CDH6 protein (hCDH6 ECD-his, conventionally synthesized), monkey CDH6 protein (cynoCDH6 ECD-his, conventionally synthesized; the cynoCDH6 ECD sequence was derived from Uniprot #A0A2K5TW62 (19-615)), and murine CDH6 protein (mCDH6 ECD-his, conventionally synthesized; the mCDH6 ECD sequence was derived from Uniprot #P97326 (19-615)) were diluted with PBS to a final concentration of 1 μg/mL, and added to a 96-well ELISA plate at 100 μL/well. The plate was incubated at 4° C. overnight. The next day, the plate was washed 3 times with a plate washing solution (PBS+0.01% (v/v) Tween 20), and a blocking buffer (PBS+0.01% (v/v) Tween 20+2% (w/w) BSA) was added for blocking at room temperature for 2 h. The blocking buffer was discarded, and the plate was washed 3 times. The chimeric antibodies were diluted with 1% BSA+PBS (purchased from Cytiva, Cat. No. SH30264.01) and added to the 96-well plate at 50 μL/well. After incubation at 37° C. for 2 h, the plate was washed 3 times with a plate washing solution. […] The plate was incubated at 37° C. for 1 h and then washed 5 times with a plate washing solution. A TMB substrate (purchased from Seracare, Cat. No. 5120-0077) was added at 50 μL/well and incubated at room temperature for 10 min, then a stop solution (1.0 N HCl) was added at 50 μL/well. OD450 nm values were read using a microplate reader (Biotek). Analysis was performed by the GraphPad Prism software, data were fitted, and EC50 values were calculated. The chimeric antibodies tested all had strong binding to the human CDH6 protein, the monkey CDH6 protein, and the murine CDH6 protein.
(§4) According to the above sequences, heavy chain (HC) and light chain (LC) plasmids were constructed (the nucleic acid sequences encoding the VH and VL of the antibodies were recombined into an expression vector carrying a signal peptide (SEQ ID NO: 132, […]) and a heavy chain constant region/light chain constant region sequence to obtain recombinant plasmids expressing VH—CH1-Fc/VL-CL).

[3] = biological target: T1, human CDH6 on tumor cells (OVCAR3 …); test: FACS, OVCAR3 cells; remark: listed apart in the source
Protocol: as §1
as §2, with “VH-CH1-Fc/VL-CL).” for “VH—CH1-Fc/VL-CL).”, “hCDH6-1” for “hCDH6-6”

[4] = biological target: T2, his-tagged human CDH6 extracellular …; test: ELISA, coated antigen; remark: listed apart in the source
Protocol: as §3
as §4, with “VH-CH1-Fc/VL-CL).” for “VH—CH1-Fc/VL-CL).”

B2: hCDH6-6-H1L5 (antibody, V domains shown)
VH: EVQLVQSGAEVKKPGASVKVSCKASGYTFTDYYMAWVRQAPGQGLEWMGYIFPNSGGTDYSQKFKGRVTMTVDKSTSTVYMELSSLRSEDTAVYYCARELGADYGDYYAMDHWGQGTTVTVSS
VL: DIVMTQSPLSLPVTPGEPASISCRASENIDSYLAWYLQKPGKSPQLLVYSATLLADGVPDRFSGSGSGTDFTLKISRVEAEDVGVYYCQHYYRTPPTFGQGTKLEIK
notes: Humanized
EC50 [1]: 0.61 nM | Max MFI [1]: 14200 MFI | EC50 [2]: 0.031 nM | Max OD450 [2]: 2.06 OD450

B3: hCDH6-6-H3L4 (antibody, V domains shown)
VH: B2 VH with G42R
VL: DIQMTQSPSSLSASVGDRVTITCRASENIDSYLAWYQQKPGKSPKLLVYSATLLADGVPSRFSGSGSGTDYTLTISSLQPEDFARYYCQHYYRTPPTFGQGTKLEIK
notes: Humanized
EC50 [1]: 0.7 nM | Max MFI [1]: 14500 MFI | EC50 [2]: 0.041 nM | Max OD450 [2]: 2.05 OD450

B5: hCDH6-6-H2L5 (antibody, V domains shown)
VH: B2 VH with M70L
VL: B2 VL
notes: Humanized
EC50 [1]: 0.64 nM | Max MFI [1]: 14600 MFI | EC50 [2]: 0.026 nM | Max OD450 [2]: 2.1 OD450

B6: hCDH6-6-H3L5 (antibody, V domains shown)
VH: B2 VH with G42R
VL: B2 VL
notes: Humanized
EC50 [1]: 0.69 nM | Max MFI [1]: 14200 MFI | EC50 [2]: 0.043 nM | Max OD450 [2]: 1.97 OD450

B7: hCDH6-6-H3L1 (antibody, V domains shown)
VH: B2 VH with G42R
VL: B3 VL with V48L, R85T
notes: Humanized
EC50 [1]: 0.87 nM | Max MFI [1]: 13700 MFI | EC50 [2]: 0.05 nM | Max OD450 [2]: 2.02 OD450

B9: hCDH6-6-H3L3 (antibody, V domains shown)
VH: B2 VH with G42R
VL: B3 VL with K45Q, R85T
notes: Humanized
EC50 [1]: 0.74 nM | Max MFI [1]: 14300 MFI | EC50 [2]: 0.031 nM | Max OD450 [2]: 2 OD450

B11: hCDH6-6-H3L2 (antibody, V domains shown)
VH: B2 VH with G42R
VL: B3 VL with R85T
notes: Humanized
EC50 [1]: 0.85 nM | Max MFI [1]: 14600 MFI | EC50 [2]: 0.03 nM | Max OD450 [2]: 2.09 OD450

B12: hCDH6-1-H2L1 (antibody, V domains shown)
VH: EVQLVQSGAEVKKPGSSVKVSCKASGYTFTNYWMHWVRQAPGQGLEWMGDIDPSHSETHYTQKFKDRVTITVDKSTSTAYMELSSLRSEDTAVYYCARGDLGRFDYWGQGTTVTVSS
VL: DIVMTQSPDSLAVSLGERATINCRASESVSIHGTHLMHWYQQKPGQPPKLLIYAASNLESGVPDRFSGSGSETDFTLTISSLQAEDVAVYYCQQSFEDPWTFGGGTKVEIK
notes: Humanized
EC50 [3]: 0.228 nM | Max MFI [3]: 14500 MFI | EC50 [4]: 0.046 nM | Max OD450 [4]: 2.65 OD450

B13: hCDH6-1-H3L1 (antibody, V domains shown)
VH: B12 VH with I70L
VL: B12 VL
notes: Humanized
EC50 [3]: 0.154 nM | Max MFI [3]: 14600 MFI | EC50 [4]: 0.026 nM | Max OD450 [4]: 2.6 OD450

B14: hCDH6-1-H2L2 (antibody, V domains shown)
VH: B12 VH
VL: B12 VL with P44S
notes: Humanized
EC50 [3]: 0.147 nM | Max MFI [3]: 14300 MFI | EC50 [4]: 0.026 nM | Max OD450 [4]: 2.63 OD450

Further binders by falling EC50 [1], results first:

EC50 [1]: 0.64 nM | Max MFI [1]: 14400 MFI | EC50 [2]: 0.021 nM | Max OD450 [2]: 2.16 OD450
B4: hCDH6-6-H1L4 (antibody, V domains shown)
VH: B2 VH
VL: B3 VL
notes: Humanized; also called hCDH6-6-HIL4

EC50 [1]: 0.63 nM | Max MFI [1]: 13800 MFI | EC50 [2]: 0.031 nM | Max OD450 [2]: 1.99 OD450
B1: hCDH6-6-H1L3 (antibody, V domains shown)
VH: B2 VH
VL: B3 VL with K45Q, R85T
notes: Humanized

EC50 [1]: 0.62 nM | Max MFI [1]: 14300 MFI | EC50 [2]: 0.029 nM | Max OD450 [2]: 2.14 OD450
B10: hCDH6-6-H2L4 (antibody, V domains shown)
VH: B2 VH with M70L
VL: B3 VL
notes: Humanized

EC50 [1]: 0.57 nM | Max MFI [1]: 14100 MFI | EC50 [2]: 0.025 nM | Max OD450 [2]: 2.09 OD450
B8: hCDH6-6-H2L3 (antibody, V domains shown)
VH: B2 VH with M70L
VL: B3 VL with K45Q, R85T
notes: Humanized
